Drawing on US20200377590A1 (Hoffmann-La Roche, published 2020), this text covers ELISA data for 20 molecules.

First the molecules themselves.
B1: CD81K04 HC GG-02-hVH_1_69 / LC GG-02-hVK_4_1 (antibody, V domains shown)
VH: QVQLVQSGAEVKKPGSSVKVSCKASGYTFSSSWMNWVRQAPGQGLEWMGRIYSGDGDAIYNQKFQGRVTITADESTSTAYMELSSLRSEDTAVYYCAREGKTGDLLLRSWGQGTLVTVSS
VL: DIVMTQSPDSLAVSLGERATINCKSSKSVSTSIYSYMHWYQQKPGQPPKLLIYYASYRESGVPDRFSGSGSGTDFTLTISSLQAEDVAVYYCQHSREFPFTFGQGTKLEIK
notes: human constant region
B2: CD81K04 HC GG-02-hVH_1_69 / LC JA_GG-10-hVK_4_1 (antibody, V domains shown)
VH: QVQLVQSGAEVKKPGSSVKVSCKASGYTFSSSWMNWVRQAPGQGLEWMGRIYSGDGDAIYNQKFQGRVTITADESTSTAYMELSSLRSEDTAVYYCAREGKTGDLLLRSWGQGTLVTVSS
VL: DIVMTQSPDSLAVSLGERATINCRASKSVSTSIYSYMHWYQQKPGQPPKLLIKYASYLESGVPDRFSGSGSGTDFTLTISSLQAEDVAVYYCEHSREFPFTFGQGTKLEIK
notes: human constant region
B3: CD81K04 HC GG-03-hVH_1_69 / LC GG-04-hVK_4_1 (antibody, V domains shown)
VH: QVQLVQSGAEVKKPGSSVKVSCKASGYTFSSSWMNWVRQAPGQGLEWMGRIYSGDGDAIYAQKFQGRVTITADESTSTAYMELSSLRSEDTAVYYCAREGKTGDLLLRSWGQGTLVTVSS
VL: DIVMTQSPDSLAVSLGERATINCKSSKSVSTSIYSYLAWYQQKPGQPPKLLIYYASTRESGVPDRFSGSGSGTDFTLTISSLQAEDVAVYYCQHSREFPYTFGQGTKLEIK
notes: human constant region
B4: CD81K04 HC GG-04-hVH_1_69 / LC JA_GG-10-hVK_4_1 (antibody, V domains shown)
VH: QVQLVQSGAEVKKPGSSVKVSCKASGYTFSSSWMNWVRQAPGQGLEWMGRIYSGDGDAIYNQKFQGRATITADESTSTAYMELSSLRSEDTAVYYCAREGKTGDLLLRSWGQGTLVTVSS
VL: DIVMTQSPDSLAVSLGERATINCRASKSVSTSIYSYMHWYQQKPGQPPKLLIKYASYLESGVPDRFSGSGSGTDFTLTISSLQAEDVAVYYCEHSREFPFTFGQGTKLEIK
notes: human constant region
B5: CD81K04 HC GG-03-hVH_1_69 / LC JA_GG-08-hVK_4_1 (antibody, V domains shown)
VH: QVQLVQSGAEVKKPGSSVKVSCKASGYTFSSSWMNWVRQAPGQGLEWMGRIYSGDGDAIYAQKFQGRVTITADESTSTAYMELSSLRSEDTAVYYCAREGKTGDLLLRSWGQGTLVTVSS
VL: DIVMTQSPDSLAVSLGERATINCKSSKSVSTSIYSYMHWYQQKPGQPPKLLIKYASYLESGVPDRFSGSGSGTDFTLTISSLQAEDVAVYYCEHSREFPFTFGQGTKLEIK
notes: human constant region
B6: CD81K04 HC GG-04-hVH_1_69 / LC JA_GG-08-hVK_4_1 (antibody, V domains shown)
VH: QVQLVQSGAEVKKPGSSVKVSCKASGYTFSSSWMNWVRQAPGQGLEWMGRIYSGDGDAIYNQKFQGRATITADESTSTAYMELSSLRSEDTAVYYCAREGKTGDLLLRSWGQGTLVTVSS
VL: DIVMTQSPDSLAVSLGERATINCKSSKSVSTSIYSYMHWYQQKPGQPPKLLIKYASYLESGVPDRFSGSGSGTDFTLTISSLQAEDVAVYYCEHSREFPFTFGQGTKLEIK
notes: human constant region
B7: CD81K04 HC GG-02-hVH_1_69 / LC GG-04-hVK_4_1 (antibody, V domains shown)
VH: QVQLVQSGAEVKKPGSSVKVSCKASGYTFSSSWMNWVRQAPGQGLEWMGRIYSGDGDAIYNQKFQGRVTITADESTSTAYMELSSLRSEDTAVYYCAREGKTGDLLLRSWGQGTLVTVSS
VL: DIVMTQSPDSLAVSLGERATINCKSSKSVSTSIYSYLAWYQQKPGQPPKLLIYYASTRESGVPDRFSGSGSGTDFTLTISSLQAEDVAVYYCQHSREFPYTFGQGTKLEIK
notes: human constant region
B8: CD81K04 HC GG-03-hVH_1_69 / LC GG-03-hVK_4_1 (antibody, V domains shown)
VH: QVQLVQSGAEVKKPGSSVKVSCKASGYTFSSSWMNWVRQAPGQGLEWMGRIYSGDGDAIYAQKFQGRVTITADESTSTAYMELSSLRSEDTAVYYCAREGKTGDLLLRSWGQGTLVTVSS
VL: DIVMTQSPDSLAVSLGERATINCKSSKSVSTSIYSYLAWYQQKPGQPPKLLIYYASYRESGVPDRFSGSGSGTDFTLTISSLQAEDVAVYYCQHSREFPFTFGQGTKLEIK
notes: human constant region
B9: CD81K04 HC GG-02-hVH_1_69 / LC JA_GG-08-hVK_4_1 (antibody, V domains shown)
VH: QVQLVQSGAEVKKPGSSVKVSCKASGYTFSSSWMNWVRQAPGQGLEWMGRIYSGDGDAIYNQKFQGRVTITADESTSTAYMELSSLRSEDTAVYYCAREGKTGDLLLRSWGQGTLVTVSS
VL: DIVMTQSPDSLAVSLGERATINCKSSKSVSTSIYSYMHWYQQKPGQPPKLLIKYASYLESGVPDRFSGSGSGTDFTLTISSLQAEDVAVYYCEHSREFPFTFGQGTKLEIK
notes: human constant region
B10: CD81K04 HC GG-03-hVH_1_69 / LC JA_GG-10-hVK_4_1 (antibody, V domains shown)
VH: QVQLVQSGAEVKKPGSSVKVSCKASGYTFSSSWMNWVRQAPGQGLEWMGRIYSGDGDAIYAQKFQGRVTITADESTSTAYMELSSLRSEDTAVYYCAREGKTGDLLLRSWGQGTLVTVSS
VL: DIVMTQSPDSLAVSLGERATINCRASKSVSTSIYSYMHWYQQKPGQPPKLLIKYASYLESGVPDRFSGSGSGTDFTLTISSLQAEDVAVYYCEHSREFPFTFGQGTKLEIK
notes: human constant region
B11: CD81K04 HC GG-05-hVH_1_18 / LC GG-04-hVK_4_1 (antibody, V domains shown)
VH: QVQLVQSGAEVKKPGASVKVSCKASGYTFSSSWMNWVRQAPGQGLEWMGRIYSGDGDAIYAQKLQGRVTMTTDTSTSTAYMELRSLRSDDTAVYYCAREGKTGDLLLRSWGQGTLVTVSS
VL: DIVMTQSPDSLAVSLGERATINCKSSKSVSTSIYSYLAWYQQKPGQPPKLLIYYASTRESGVPDRFSGSGSGTDFTLTISSLQAEDVAVYYCQHSREFPYTFGQGTKLEIK
notes: human constant region
B12: CD81K04 HC GG-04-hVH_1_69 / LC JA_GG-09-hVK_4_1 (antibody, V domains shown)
VH: QVQLVQSGAEVKKPGSSVKVSCKASGYTFSSSWMNWVRQAPGQGLEWMGRIYSGDGDAIYNQKFQGRATITADESTSTAYMELSSLRSEDTAVYYCAREGKTGDLLLRSWGQGTLVTVSS
VL: DIVMTQSPDSLAVSLGERATINCKSSKSVSTSIYSYMHWYQQKPGQPPKLLIKYASTRESGVPDRFSGSGSGTDFTLTISSLQAEDVAVYYCEHSREFPFTFGQGTKLEIK
notes: human constant region
B13: CD81K04 HC GG-04-hVH_1_69 / LC GG-04-hVK_4_1 (antibody, V domains shown)
VH: QVQLVQSGAEVKKPGSSVKVSCKASGYTFSSSWMNWVRQAPGQGLEWMGRIYSGDGDAIYNQKFQGRATITADESTSTAYMELSSLRSEDTAVYYCAREGKTGDLLLRSWGQGTLVTVSS
VL: DIVMTQSPDSLAVSLGERATINCKSSKSVSTSIYSYLAWYQQKPGQPPKLLIYYASTRESGVPDRFSGSGSGTDFTLTISSLQAEDVAVYYCQHSREFPYTFGQGTKLEIK
notes: human constant region
B14: CD81K04 HC GG-02-hVH_1_69 / LC JA_GG-09-hVK_4_1 (antibody, V domains shown)
VH: QVQLVQSGAEVKKPGSSVKVSCKASGYTFSSSWMNWVRQAPGQGLEWMGRIYSGDGDAIYNQKFQGRVTITADESTSTAYMELSSLRSEDTAVYYCAREGKTGDLLLRSWGQGTLVTVSS
VL: DIVMTQSPDSLAVSLGERATINCKSSKSVSTSIYSYMHWYQQKPGQPPKLLIKYASTRESGVPDRFSGSGSGTDFTLTISSLQAEDVAVYYCEHSREFPFTFGQGTKLEIK
notes: human constant region
B15: CD81K04 HC GG-03-hVH_1_69 / LC GG-02-hVK_4_1 (antibody, V domains shown)
VH: QVQLVQSGAEVKKPGSSVKVSCKASGYTFSSSWMNWVRQAPGQGLEWMGRIYSGDGDAIYAQKFQGRVTITADESTSTAYMELSSLRSEDTAVYYCAREGKTGDLLLRSWGQGTLVTVSS
VL: DIVMTQSPDSLAVSLGERATINCKSSKSVSTSIYSYMHWYQQKPGQPPKLLIYYASYRESGVPDRFSGSGSGTDFTLTISSLQAEDVAVYYCQHSREFPFTFGQGTKLEIK
notes: human constant region
B16: CD81K04 HC GG-04-hVH_1_69 / LC GG-02-hVK_4_1 (antibody, V domains shown)
VH: QVQLVQSGAEVKKPGSSVKVSCKASGYTFSSSWMNWVRQAPGQGLEWMGRIYSGDGDAIYNQKFQGRATITADESTSTAYMELSSLRSEDTAVYYCAREGKTGDLLLRSWGQGTLVTVSS
VL: DIVMTQSPDSLAVSLGERATINCKSSKSVSTSIYSYMHWYQQKPGQPPKLLIYYASYRESGVPDRFSGSGSGTDFTLTISSLQAEDVAVYYCQHSREFPFTFGQGTKLEIK
notes: human constant region
B17: CD81K04 HC GG-03-hVH_1_69 / LC JA_GG-09-hVK_4_1 (antibody, V domains shown)
VH: QVQLVQSGAEVKKPGSSVKVSCKASGYTFSSSWMNWVRQAPGQGLEWMGRIYSGDGDAIYAQKFQGRVTITADESTSTAYMELSSLRSEDTAVYYCAREGKTGDLLLRSWGQGTLVTVSS
VL: DIVMTQSPDSLAVSLGERATINCKSSKSVSTSIYSYMHWYQQKPGQPPKLLIKYASTRESGVPDRFSGSGSGTDFTLTISSLQAEDVAVYYCEHSREFPFTFGQGTKLEIK
notes: human constant region
B18: CD81K04 HC GG-05-hVH_1_18 / LC GG-02-hVK_4_1 (antibody, V domains shown)
VH: QVQLVQSGAEVKKPGASVKVSCKASGYTFSSSWMNWVRQAPGQGLEWMGRIYSGDGDAIYAQKLQGRVTMTTDTSTSTAYMELRSLRSDDTAVYYCAREGKTGDLLLRSWGQGTLVTVSS
VL: DIVMTQSPDSLAVSLGERATINCKSSKSVSTSIYSYMHWYQQKPGQPPKLLIYYASYRESGVPDRFSGSGSGTDFTLTISSLQAEDVAVYYCQHSREFPFTFGQGTKLEIK
notes: human constant region
B19: CD81K04 HC GG-04-hVH_1_69 / LC GG-03-hVK_4_1 (antibody, V domains shown)
VH: QVQLVQSGAEVKKPGSSVKVSCKASGYTFSSSWMNWVRQAPGQGLEWMGRIYSGDGDAIYNQKFQGRATITADESTSTAYMELSSLRSEDTAVYYCAREGKTGDLLLRSWGQGTLVTVSS
VL: DIVMTQSPDSLAVSLGERATINCKSSKSVSTSIYSYLAWYQQKPGQPPKLLIYYASYRESGVPDRFSGSGSGTDFTLTISSLQAEDVAVYYCQHSREFPFTFGQGTKLEIK
notes: human constant region
B20: CD81K04 HC GG-02-hVH_1_69 / LC GG-03-hVK_4_1 (antibody, V domains shown)
VH: QVQLVQSGAEVKKPGSSVKVSCKASGYTFSSSWMNWVRQAPGQGLEWMGRIYSGDGDAIYNQKFQGRVTITADESTSTAYMELSSLRSEDTAVYYCAREGKTGDLLLRSWGQGTLVTVSS
VL: DIVMTQSPDSLAVSLGERATINCKSSKSVSTSIYSYLAWYQQKPGQPPKLLIYYASYRESGVPDRFSGSGSGTDFTLTISSLQAEDVAVYYCQHSREFPFTFGQGTKLEIK
notes: human constant region

The assay deals with T1, CD81 (UniProt P60033 1-236, limits assumed).
T1 construct: whole, on cells; also called CD81 receptor
T1 sequence (looked up): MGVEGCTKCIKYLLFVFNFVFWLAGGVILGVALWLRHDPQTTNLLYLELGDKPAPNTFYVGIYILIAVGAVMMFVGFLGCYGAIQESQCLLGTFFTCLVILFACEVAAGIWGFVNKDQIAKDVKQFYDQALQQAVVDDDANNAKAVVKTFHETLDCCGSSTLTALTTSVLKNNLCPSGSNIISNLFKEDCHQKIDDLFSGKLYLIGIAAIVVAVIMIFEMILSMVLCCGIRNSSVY
The assay is described as follows: cell ELISA.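 Further: antibody binding to HuH7 cells expressing CD81 versus a CD81-negative HuH7 control line, bound antibody detected by secondary reagent, absorbance at 450 nm with 620 nm reference.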 In general terms: An ELISA detects its analyte on a solid surface through an enzyme-linked reagent.
Procedure: For the binding cell ELISA assay, HuH7-Rluc-H3 (positive cell line expressing CD81) and HuH7-Rluc-L1 (negative control cell line) were propagated in F-12 DMEM medium with 10% FCS at 37° C. and 5% CO₂. On day 1, the cells were trypsinized at approximately 90% confluence and resuspended at 4×10⁵ cells/mL. […] On day 2, the antibody samples to be tested were prepared in a separate polypropylene round bottom plate with a twofold desired concentration with a final volume of 120 μl. All of the assay samples were diluted in cell culture medium. […] After fixation, each well was washed 3 times with 200 μL PBS/0.05% Tween. The secondary incubation step for detection of bound anti-CD81 antibodies was performed for 2 h at room temperature on a reciprocal shaker. […] Each well was washed three times with 200 μL PBS/0.05% Tween to remove unbound antibodies. […] The absorbance was read using the ELISA Tecan reader at 450 nm with 620 nm reference wavelength.
Take B1: the ELISA data is 0.22.

Take B2: the ELISA data amounted to 0.643. Next, B3: 0.07. The molecule B4 gave an ELISA data of 0.762.

B5 came in with an ELISA data of 0.815.

The molecule B6 yielded an ELISA data of 0.773.

Molecule B7 came in with an ELISA data of 0.075. The molecule B8 came in with an ELISA data of 0.165. B9: the ELISA data was found to be 0.792. Then B10, with 0.691; and B11, with 0.187; and B12, with 0.918. The molecule B13 showed an ELISA data of 0.141. Then B14, with 0.783; and B15, with 0.44. In the case of B16, the ELISA data was found to be 0.27. Next, B17: 0.832; B18: 0.664.

B19 displayed an ELISA data of 0.162.

B20 returned an ELISA data of 0.142.
